Laboratory results from publication PMC9482650, “Quantitative fragmentomics allow affinity mapping of interactomes” (Nature Communications, 2022).

T1: APBA1_2, Q02410
T1 sequence (Q02410 742-832, limits assumed, looked up): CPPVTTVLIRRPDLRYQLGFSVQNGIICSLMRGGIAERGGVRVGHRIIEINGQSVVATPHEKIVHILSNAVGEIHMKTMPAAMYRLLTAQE

T2: ARHGEF11, O15085
T2 sequence (O15085 42-136, limits assumed, looked up): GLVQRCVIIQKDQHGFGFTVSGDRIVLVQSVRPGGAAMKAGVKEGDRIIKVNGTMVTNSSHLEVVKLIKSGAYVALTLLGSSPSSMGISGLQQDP

T3: GRIP1_2, Q9Y3R0
T3 sequence (Q9Y3R0 145-248, limits assumed, looked up): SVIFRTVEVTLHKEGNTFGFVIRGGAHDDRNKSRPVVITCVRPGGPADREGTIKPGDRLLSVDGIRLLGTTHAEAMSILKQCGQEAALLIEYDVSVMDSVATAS

T4: GRIP1_3, Q9Y3R0
T4 sequence (Q9Y3R0 247-346, limits assumed, looked up): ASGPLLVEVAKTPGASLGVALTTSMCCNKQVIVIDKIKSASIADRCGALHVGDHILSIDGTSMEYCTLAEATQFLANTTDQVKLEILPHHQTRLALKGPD

T5: LRRC7, Q96NW7
T5 sequence (Q96NW7 1440-1537, limits assumed, looked up): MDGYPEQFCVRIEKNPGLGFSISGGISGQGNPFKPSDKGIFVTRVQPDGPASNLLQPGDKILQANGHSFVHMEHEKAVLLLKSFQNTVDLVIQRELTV

T6: MPDZ_12, O75970
T6 sequence (O75970 1857-1958, limits assumed, looked up): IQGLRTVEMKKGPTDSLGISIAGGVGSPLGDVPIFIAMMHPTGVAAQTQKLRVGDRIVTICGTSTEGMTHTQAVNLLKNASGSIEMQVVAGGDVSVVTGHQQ

T7: PDZRN3_1, Q9UPQ7
T7 sequence (Q9UPQ7 244-349, limits assumed, looked up): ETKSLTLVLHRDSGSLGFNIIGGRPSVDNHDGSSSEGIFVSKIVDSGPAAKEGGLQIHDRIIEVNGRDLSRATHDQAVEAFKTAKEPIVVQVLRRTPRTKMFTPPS

T8: PTPN13_1, Q12923
T8 sequence (Q12923 1088-1188, limits assumed, looked up): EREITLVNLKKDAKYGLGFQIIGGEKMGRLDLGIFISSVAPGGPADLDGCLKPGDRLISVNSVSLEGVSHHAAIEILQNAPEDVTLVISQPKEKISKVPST

T9: RADIL, Q96JH8
T9 sequence (Q96JH8 971-1071, limits assumed, looked up): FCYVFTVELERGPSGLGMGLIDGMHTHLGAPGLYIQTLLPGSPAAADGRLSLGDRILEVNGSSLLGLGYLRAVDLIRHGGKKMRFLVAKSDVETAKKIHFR

T10: RHPN1, Q8TCX5
T10 sequence (Q8TCX5 508-602, limits assumed, looked up): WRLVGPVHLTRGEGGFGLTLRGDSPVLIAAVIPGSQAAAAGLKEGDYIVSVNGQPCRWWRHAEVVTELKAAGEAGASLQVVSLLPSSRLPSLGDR

T11: SNTB1, Q13884
T11 sequence (Q13884 107-205, limits assumed, looked up): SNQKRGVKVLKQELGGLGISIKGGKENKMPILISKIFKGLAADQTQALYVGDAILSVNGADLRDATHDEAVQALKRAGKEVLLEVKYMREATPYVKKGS

T12: SNTG2, Q9NY99
T12 sequence (Q9NY99 68-166, limits assumed, looked up): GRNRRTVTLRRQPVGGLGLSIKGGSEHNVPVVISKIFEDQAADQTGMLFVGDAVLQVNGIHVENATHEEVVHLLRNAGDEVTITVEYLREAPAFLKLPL


Assays:
Experiment in all cases: holdup assay
Design in all cases: key: below the threshold = too weak to quantify, mostly under pKd 3.1 to 4
Conditions in all cases: plain residues with an end cap or a label only (N-terminal biotin on a linker: ado-ado)
APBA1_2, Q02410 = target: T1, APBA1_2, Q02410
ARHGEF11, O15085 = target: T2, ARHGEF11, O15085
ARHGEF12, Q9NZN5-2 = target: ARHGEF12, Q9NZN5-2
Chain of ARHGEF12, Q9NZN5-2 (Q9NZN5 other isoform, or with tags, fused parts or gaps): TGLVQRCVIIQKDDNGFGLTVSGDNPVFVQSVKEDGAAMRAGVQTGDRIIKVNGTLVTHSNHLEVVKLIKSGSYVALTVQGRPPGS

CASK, O14936 = target: CASK, O14936
Chain of CASK, O14936 (O14936 487-570): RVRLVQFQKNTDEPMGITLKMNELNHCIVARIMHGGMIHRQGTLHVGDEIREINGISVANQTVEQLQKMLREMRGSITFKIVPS

DLG1_1, Q12959 = target: DLG1_1, Q12959
DLG2_2, Q15700 = target: DLG2_2, Q15700
Chain of DLG2_2, Q15700 (Q15700 189-283): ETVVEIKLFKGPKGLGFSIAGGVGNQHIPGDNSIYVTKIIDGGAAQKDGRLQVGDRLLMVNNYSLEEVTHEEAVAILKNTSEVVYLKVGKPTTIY

DLG4_2, P78352 = target: DLG4_2, P78352
Chain of DLG4_2, P78352 (P78352 155-259): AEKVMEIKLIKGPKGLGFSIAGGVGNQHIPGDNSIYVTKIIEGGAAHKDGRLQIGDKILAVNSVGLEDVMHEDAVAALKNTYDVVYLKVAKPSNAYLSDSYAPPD

DLG5_1, Q8TDM6 = target: DLG5_1, Q8TDM6
Chain of DLG5_1, Q8TDM6 (Q8TDM6 617-713): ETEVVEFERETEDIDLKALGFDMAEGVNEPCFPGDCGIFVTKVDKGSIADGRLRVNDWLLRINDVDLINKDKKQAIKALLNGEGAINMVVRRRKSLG

GRIP1_2, Q9Y3R0 = target: T3, GRIP1_2, Q9Y3R0
GRIP1_3, Q9Y3R0 = target: T4, GRIP1_3, Q9Y3R0
Inadl_10, Q8NI35 = target: Inadl_10, Q8NI35
Chain of Inadl_10, Q8NI35 (Q8NI35 1673-1763): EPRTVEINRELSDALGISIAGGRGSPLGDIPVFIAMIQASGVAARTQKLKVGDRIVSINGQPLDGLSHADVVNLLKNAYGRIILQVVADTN

Inadl_4, Q8NI35 = target: Inadl_4, Q8NI35
Chain of Inadl_4, Q8NI35 (Q8NI35 547-651): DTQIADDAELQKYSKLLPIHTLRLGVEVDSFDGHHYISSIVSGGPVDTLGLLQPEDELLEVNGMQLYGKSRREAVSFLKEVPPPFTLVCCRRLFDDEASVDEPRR

LRRC7, Q96NW7 = target: T5, LRRC7, Q96NW7
MAGI2_3, Q86UL8 = target: MAGI2_3, Q86UL8
Chain of MAGI2_3, Q86UL8 (Q86UL8 600-682): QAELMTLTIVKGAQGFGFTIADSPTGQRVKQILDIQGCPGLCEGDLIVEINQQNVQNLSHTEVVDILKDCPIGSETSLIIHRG

MAGI2_5, Q86UL8 = target: MAGI2_5, Q86UL8
Chain of MAGI2_5, Q86UL8 (Q86UL8 915-1017): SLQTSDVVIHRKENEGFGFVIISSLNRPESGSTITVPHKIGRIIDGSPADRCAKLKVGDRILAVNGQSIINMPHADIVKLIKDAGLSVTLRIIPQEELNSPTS

MPDZ_12, O75970 = target: T6, MPDZ_12, O75970
NHERF4_2, Q86UT5 = target: NHERF4_2, Q86UT5
Chain of NHERF4_2, Q86UT5 (Q86UT5 220-308): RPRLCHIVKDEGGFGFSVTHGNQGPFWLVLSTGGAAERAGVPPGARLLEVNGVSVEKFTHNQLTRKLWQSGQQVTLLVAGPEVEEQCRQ

PARD3_3, Q8TEW0 = target: PARD3_3, Q8TEW0
Chain of PARD3_3, Q8TEW0 (Q8TEW0 582-685): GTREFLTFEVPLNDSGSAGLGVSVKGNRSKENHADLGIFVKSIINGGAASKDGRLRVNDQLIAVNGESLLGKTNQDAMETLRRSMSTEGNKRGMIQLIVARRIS

PDZRN3_1, Q9UPQ7 = target: T7, PDZRN3_1, Q9UPQ7
PTPN13_1, Q12923 = target: T8, PTPN13_1, Q12923
RADIL, Q96JH8 = target: T9, RADIL, Q96JH8
RHPN1, Q8TCX5 = target: T10, RHPN1, Q8TCX5
SCRIB_1, Q14160 = target: SCRIB_1, Q14160
Chain of SCRIB_1, Q14160 (Q14160 718-814): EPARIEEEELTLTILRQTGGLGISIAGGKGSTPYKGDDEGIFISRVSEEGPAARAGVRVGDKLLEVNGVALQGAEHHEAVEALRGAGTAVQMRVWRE

SCRIB_3, Q14160 = target: SCRIB_3, Q14160
Chain of SCRIB_3, Q14160 (Q14160 999-1103): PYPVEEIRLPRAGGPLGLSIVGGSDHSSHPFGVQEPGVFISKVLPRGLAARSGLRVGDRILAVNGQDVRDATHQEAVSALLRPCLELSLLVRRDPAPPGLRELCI

SNTB1, Q13884 = target: T11, SNTB1, Q13884
SNTG2, Q9NY99 = target: T12, SNTG2, Q9NY99

Binder	pKd (APBA1_2, Q02410)	pKd (ARHGEF11, O15085)	pKd (ARHGEF12, Q9NZN5-2)	pKd (CASK, O14936)	pKd (DLG1_1, Q12959)	pKd (DLG2_2, Q15700)	pKd (DLG4_2, P78352)	pKd (DLG5_1, Q8TDM6)	pKd (GRIP1_2, Q9Y3R0)	pKd (GRIP1_3, Q9Y3R0)	pKd (Inadl_10, Q8NI35)	pKd (Inadl_4, Q8NI35)	pKd (LRRC7, Q96NW7)	pKd (MAGI2_3, Q86UL8)	pKd (MAGI2_5, Q86UL8)	pKd (MPDZ_12, O75970)	pKd (NHERF4_2, Q86UT5)	pKd (PARD3_3, Q8TEW0)	pKd (PDZRN3_1, Q9UPQ7)	pKd (PTPN13_1, Q12923)	further results
NLSIEKETKL [ASNSD1, Q9NWL6]	below the threshold	below the threshold	4.43	below the threshold	below the threshold	3.5	3.54	below the threshold	below the threshold	below the threshold	below the threshold	below the threshold	below the threshold	below the threshold	below the threshold	3.56	below the threshold	below the threshold	4.67	below the threshold	pKd (RADIL, Q96JH8): below the threshold; pKd (RHPN1, Q8TCX5): 4.76; pKd (SCRIB_1, Q14160): 4.3; pKd (SCRIB_3, Q14160): 4.97; pKd (SNTB1, Q13884): 5.22; pKd (SNTG2, Q9NY99): 4.95
TPPAAKKSRI [BAZ1A, Q9NRL2]	below the threshold	3.92	3.66	below the threshold	below the threshold	3.65	3.85	3.57	below the threshold	below the threshold	below the threshold	below the threshold	below the threshold	below the threshold	below the threshold	below the threshold	below the threshold	below the threshold	below the threshold	below the threshold	pKd (RADIL, Q96JH8): below the threshold; pKd (RHPN1, Q8TCX5): 3.61; pKd (SCRIB_1, Q14160): below the threshold; pKd (SCRIB_3, Q14160): below the threshold; pKd (SNTB1, Q13884): below the threshold; pKd (SNTG2, Q9NY99): below the threshold
VNKSKLLTDV [KCNA1, Q09470]	3.56	4.29	4.56	below the threshold	4.11	4.29	4.43	below the threshold	below the threshold	below the threshold	below the threshold	below the threshold	below the threshold	below the threshold	below the threshold	below the threshold	below the threshold	below the threshold	below the threshold	below the threshold	pKd (RADIL, Q96JH8): below the threshold; pKd (RHPN1, Q8TCX5): 3.96; pKd (SCRIB_1, Q14160): 3.87; pKd (SCRIB_3, Q14160): 3.55; pKd (SNTB1, Q13884): below the threshold; pKd (SNTG2, Q9NY99): below the threshold

More lines, main results first:

pKd (APBA1_2, Q02410)	pKd (ARHGEF11, O15085)	pKd (ARHGEF12, Q9NZN5-2)	pKd (CASK, O14936)	pKd (DLG1_1, Q12959)	pKd (DLG2_2, Q15700)	pKd (DLG4_2, P78352)	pKd (DLG5_1, Q8TDM6)	pKd (GRIP1_2, Q9Y3R0)	pKd (GRIP1_3, Q9Y3R0)	pKd (Inadl_10, Q8NI35)	pKd (Inadl_4, Q8NI35)	pKd (LRRC7, Q96NW7)	pKd (MAGI2_3, Q86UL8)	pKd (MAGI2_5, Q86UL8)	pKd (MPDZ_12, O75970)	pKd (NHERF4_2, Q86UT5)	pKd (PARD3_3, Q8TEW0)	pKd (PDZRN3_1, Q9UPQ7)	pKd (PTPN13_1, Q12923)	Binder	further results
below the threshold	below the threshold	4.4	below the threshold	4.23	4.47	4.55	below the threshold	below the threshold	below the threshold	below the threshold	below the threshold	below the threshold	3.63	4.13	3.48	below the threshold	3.78	4.19	below the threshold	SKENVQETQI [LRRC4B, Q9NT99]	pKd (RADIL, Q96JH8): below the threshold; pKd (RHPN1, Q8TCX5): 5.1; pKd (SCRIB_1, Q14160): 4.93; pKd (SCRIB_3, Q14160): 4.88; pKd (SNTB1, Q13884): 5.07; pKd (SNTG2, Q9NY99): 4.81
below the threshold	3.7	3.75	below the threshold	below the threshold	below the threshold	3.59	below the threshold	below the threshold	below the threshold	3.59	below the threshold	below the threshold	3.48	4.04	below the threshold	below the threshold	below the threshold	below the threshold	below the threshold	EVNETDDTKM [KCNJ1, P48048]	pKd (RADIL, Q96JH8): 3.56; pKd (RHPN1, Q8TCX5): below the threshold; pKd (SCRIB_1, Q14160): below the threshold; pKd (SCRIB_3, Q14160): 3.67; pKd (SNTB1, Q13884): below the threshold; pKd (SNTG2, Q9NY99): below the threshold
